Measurements from article PMC9482650, “Quantitative fragmentomics allow affinity mapping of interactomes” (Nature Communications, 2022).

T1: APBA2_1, Q99767
T1 sequence (Q99767 563-664, limits assumed, looked up): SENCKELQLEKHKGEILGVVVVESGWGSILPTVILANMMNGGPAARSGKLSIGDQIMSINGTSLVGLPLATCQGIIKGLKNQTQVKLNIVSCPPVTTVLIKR

T2: MPDZ_12, O75970
T2 sequence (O75970 1857-1958, limits assumed, looked up): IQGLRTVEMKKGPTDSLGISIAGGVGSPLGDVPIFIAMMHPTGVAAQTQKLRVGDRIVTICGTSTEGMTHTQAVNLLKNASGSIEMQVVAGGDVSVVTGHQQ

T3: LNX2_2, Q8N448
T3 sequence (Q8N448 334-432, limits assumed, looked up): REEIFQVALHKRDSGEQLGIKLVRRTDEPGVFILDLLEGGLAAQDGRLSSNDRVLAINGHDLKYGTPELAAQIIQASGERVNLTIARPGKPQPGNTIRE

T4: PDZD7_3, Q9H5P4
T4 sequence (Q9H5P4 857-944, limits assumed, looked up): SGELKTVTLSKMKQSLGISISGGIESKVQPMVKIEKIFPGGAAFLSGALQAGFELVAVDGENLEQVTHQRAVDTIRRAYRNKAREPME

T5: HTRA4, P83105
T5 sequence (P83105 378-476, limits assumed, looked up): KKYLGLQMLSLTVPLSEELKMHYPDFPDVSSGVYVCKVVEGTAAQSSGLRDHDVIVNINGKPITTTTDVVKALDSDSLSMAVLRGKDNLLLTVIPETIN

T6: MPP2, Q14168
T6 sequence (Q14168 180-250, limits assumed, looked up): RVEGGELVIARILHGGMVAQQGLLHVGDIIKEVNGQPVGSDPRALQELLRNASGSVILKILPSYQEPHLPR

T7: NHERF3_3, Q5T2W1
T7 sequence (Q5T2W1 238-333, limits assumed, looked up): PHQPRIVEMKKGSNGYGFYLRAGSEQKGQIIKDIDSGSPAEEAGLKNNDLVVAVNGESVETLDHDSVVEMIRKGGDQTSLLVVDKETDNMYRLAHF

T8: MPP7, Q5T2T1
T8 sequence (Q5T2T1 134-230, limits assumed, looked up): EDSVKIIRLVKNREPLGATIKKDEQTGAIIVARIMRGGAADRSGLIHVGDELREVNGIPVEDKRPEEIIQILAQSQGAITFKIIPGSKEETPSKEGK

T9: APBA1_2, Q02410
T9 sequence (Q02410 742-832, limits assumed, looked up): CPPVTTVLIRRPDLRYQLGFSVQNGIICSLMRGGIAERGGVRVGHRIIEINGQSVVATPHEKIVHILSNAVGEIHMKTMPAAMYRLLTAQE

T10: TIAM2, Q8IVF5
T10 sequence (Q8IVF5 885-986, limits assumed, looked up): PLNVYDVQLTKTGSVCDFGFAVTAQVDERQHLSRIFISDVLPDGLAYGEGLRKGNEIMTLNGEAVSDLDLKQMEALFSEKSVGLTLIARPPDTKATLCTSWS

T11: GRIP1_7, Q9Y3R0
T11 sequence (Q9Y3R0 999-1096, limits assumed, looked up): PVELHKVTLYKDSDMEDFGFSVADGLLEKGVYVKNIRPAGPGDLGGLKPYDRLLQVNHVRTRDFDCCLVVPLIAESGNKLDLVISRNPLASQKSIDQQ

T12: ARHGEF11, O15085
T12 sequence (O15085 42-136, limits assumed, looked up): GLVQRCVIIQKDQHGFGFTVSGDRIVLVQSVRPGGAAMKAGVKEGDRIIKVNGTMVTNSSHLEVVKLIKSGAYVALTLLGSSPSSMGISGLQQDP

T13: DVL3, Q92997
T13 sequence (Q92997 244-331, limits assumed, looked up): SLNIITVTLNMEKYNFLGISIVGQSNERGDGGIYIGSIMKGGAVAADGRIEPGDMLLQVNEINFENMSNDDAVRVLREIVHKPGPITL

T14: SNTG1, Q9NSN8
T14 sequence (Q9NSN8 52-150, limits assumed, looked up): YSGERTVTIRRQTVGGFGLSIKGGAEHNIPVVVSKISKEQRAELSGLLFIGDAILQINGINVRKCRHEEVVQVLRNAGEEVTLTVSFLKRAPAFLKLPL


Assays:
Test in all cases: holdup assay
Parameters in all cases: key: below the threshold = too weak to quantify, mostly under pKd 3.1 to 4
Details in all cases: plain residues with an end cap or a label only (N-terminal biotin on a linker: ado-ado)
APBA2_1, Q99767 = biological target: T1, APBA2_1, Q99767
MPDZ_12, O75970 = biological target: T2, MPDZ_12, O75970
TJP1_2, Q07157 = biological target: TJP1_2, Q07157
MAST2, Q6P0Q8 = biological target: MAST2, Q6P0Q8
GRIP2_3, Q9C0E4 = biological target: GRIP2_3, Q9C0E4
HTRA2, O43464 = biological target: HTRA2, O43464
SCRIB_1, Q14160 = biological target: SCRIB_1, Q14160
GOPC, Q9HD26 = biological target: GOPC, Q9HD26
ARHGEF12, Q9NZN5-2 = biological target: ARHGEF12, Q9NZN5-2
LNX2_2, Q8N448 = biological target: T3, LNX2_2, Q8N448
PDZD7_3, Q9H5P4 = biological target: T4, PDZD7_3, Q9H5P4
HTRA4, P83105 = biological target: T5, HTRA4, P83105
MPP2, Q14168 = biological target: T6, MPP2, Q14168
NHERF3_3, Q5T2W1 = biological target: T7, NHERF3_3, Q5T2W1
MPP7, Q5T2T1 = biological target: T8, MPP7, Q5T2T1
APBA1_2, Q02410 = biological target: T9, APBA1_2, Q02410
TIAM2, Q8IVF5 = biological target: T10, TIAM2, Q8IVF5
DLG5_1, Q8TDM6 = biological target: DLG5_1, Q8TDM6
GRIP1_7, Q9Y3R0 = biological target: T11, GRIP1_7, Q9Y3R0
LIMK2, P53671 = biological target: LIMK2, P53671
ARHGEF11, O15085 = biological target: T12, ARHGEF11, O15085
DVL3, Q92997 = biological target: T13, DVL3, Q92997
Inadl_3, Q8NI35 = biological target: Inadl_3, Q8NI35
SNTG1, Q9NSN8 = biological target: T14, SNTG1, Q9NSN8

Chain of SCRIB_1, Q14160 (Q14160 718-814): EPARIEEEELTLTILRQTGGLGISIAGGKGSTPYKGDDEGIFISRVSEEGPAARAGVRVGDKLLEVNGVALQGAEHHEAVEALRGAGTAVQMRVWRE
Chain of MAST2, Q6P0Q8 (Q6P0Q8 1099-1202): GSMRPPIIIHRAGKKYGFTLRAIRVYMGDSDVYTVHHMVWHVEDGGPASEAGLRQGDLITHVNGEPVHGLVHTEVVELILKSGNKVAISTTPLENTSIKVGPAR
Chain of GRIP2_3, Q9C0E4 (Q9C0E4 238-339): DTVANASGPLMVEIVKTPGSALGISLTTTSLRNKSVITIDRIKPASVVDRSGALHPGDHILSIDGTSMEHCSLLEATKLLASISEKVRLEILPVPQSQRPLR
Chain of LIMK2, P53671 (P53671 143-248): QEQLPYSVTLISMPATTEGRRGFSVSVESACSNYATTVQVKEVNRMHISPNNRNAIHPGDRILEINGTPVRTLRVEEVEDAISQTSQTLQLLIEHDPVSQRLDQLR
Chain of ARHGEF12, Q9NZN5-2 (Q9NZN5 other isoform, or with tags, fused parts or gaps): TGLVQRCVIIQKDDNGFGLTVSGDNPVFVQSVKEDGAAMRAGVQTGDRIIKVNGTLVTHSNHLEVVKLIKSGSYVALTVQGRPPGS
Chain of Inadl_3, Q8NI35 (Q8NI35 359-469): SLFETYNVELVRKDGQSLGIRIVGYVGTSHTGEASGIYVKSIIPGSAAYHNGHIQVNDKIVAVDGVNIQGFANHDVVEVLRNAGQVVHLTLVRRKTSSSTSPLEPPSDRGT
Chain of DLG5_1, Q8TDM6 (Q8TDM6 617-713): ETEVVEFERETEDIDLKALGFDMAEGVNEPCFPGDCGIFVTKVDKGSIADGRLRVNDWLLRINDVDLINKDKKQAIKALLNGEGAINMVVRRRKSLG
Chain of HTRA2, O43464 (O43464 355-458): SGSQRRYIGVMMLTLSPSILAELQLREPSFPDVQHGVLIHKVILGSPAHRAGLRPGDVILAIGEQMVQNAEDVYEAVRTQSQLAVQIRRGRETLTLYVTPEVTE
Chain of TJP1_2, Q07157 (Q07157 181-274): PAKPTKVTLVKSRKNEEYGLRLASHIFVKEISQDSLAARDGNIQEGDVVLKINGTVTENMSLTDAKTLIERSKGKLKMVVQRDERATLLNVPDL

Binder	pKd (APBA2_1, Q99767)	pKd (MPDZ_12, O75970)	pKd (TJP1_2, Q07157)	pKd (MAST2, Q6P0Q8)	pKd (GRIP2_3, Q9C0E4)	pKd (HTRA2, O43464)	pKd (SCRIB_1, Q14160)	pKd (GOPC, Q9HD26)	pKd (ARHGEF12, Q9NZN5-2)	pKd (LNX2_2, Q8N448)	pKd (PDZD7_3, Q9H5P4)	pKd (HTRA4, P83105)	pKd (MPP2, Q14168)	pKd (NHERF3_3, Q5T2W1)	pKd (MPP7, Q5T2T1)	pKd (APBA1_2, Q02410)	pKd (TIAM2, Q8IVF5)	pKd (DLG5_1, Q8TDM6)	pKd (GRIP1_7, Q9Y3R0)	pKd (LIMK2, P53671)	other results
KKMPSIESDV [GRIN2A, Q12879]	below the threshold	below the threshold	below the threshold	4.95	below the threshold	below the threshold	4.34	below the threshold	3.69	below the threshold	below the threshold	below the threshold	below the threshold	below the threshold	below the threshold	below the threshold	3.96	below the threshold	below the threshold	below the threshold	pKd (ARHGEF11, O15085): below the threshold; pKd (DVL3, Q92997): below the threshold; pKd (Inadl_3, Q8NI35): below the threshold; pKd (SNTG1, Q9NSN8): 4.89
DDENIRTSDV [PLEKHA2, Q9HB19]	below the threshold	below the threshold	below the threshold	4.9	below the threshold	below the threshold	3.75	3.5	4.25	below the threshold	4.73	below the threshold	below the threshold	below the threshold	below the threshold	below the threshold	below the threshold	below the threshold	below the threshold	below the threshold	pKd (ARHGEF11, O15085): 4.2; pKd (DVL3, Q92997): below the threshold; pKd (Inadl_3, Q8NI35): below the threshold; pKd (SNTG1, Q9NSN8): 4.88
TACCHSETVV [TGFA, P01135]	below the threshold	below the threshold	below the threshold	5.1	below the threshold	below the threshold	4.3	3.82	3.56	5.21	5.04	3.59	below the threshold	below the threshold	below the threshold	3.87	below the threshold	below the threshold	below the threshold	below the threshold	pKd (ARHGEF11, O15085): 4.44; pKd (DVL3, Q92997): below the threshold; pKd (Inadl_3, Q8NI35): 4.81; pKd (SNTG1, Q9NSN8): 4.43
HSGYRLNDYV [CLDN14, O95500]	below the threshold	below the threshold	below the threshold	3.89	below the threshold	3.74	below the threshold	below the threshold	below the threshold	4.56	4.19	3.95	below the threshold	below the threshold	below the threshold	3.84	below the threshold	below the threshold	below the threshold	below the threshold	pKd (ARHGEF11, O15085): 3.71; pKd (DVL3, Q92997): 3.66; pKd (Inadl_3, Q8NI35): below the threshold; pKd (SNTG1, Q9NSN8): below the threshold
TSQESEDTYL [TBC1D10A, Q9BXI6]	below the threshold	below the threshold	below the threshold	5.41	below the threshold	below the threshold	3.99	below the threshold	4.02	below the threshold	3.9	3.75	below the threshold	3.59	below the threshold	below the threshold	below the threshold	below the threshold	below the threshold	below the threshold	pKd (ARHGEF11, O15085): below the threshold; pKd (DVL3, Q92997): below the threshold; pKd (Inadl_3, Q8NI35): below the threshold; pKd (SNTG1, Q9NSN8): below the threshold
TSSMRGMDAV [RSRC2, Q7L4I2]	below the threshold	below the threshold	below the threshold	below the threshold	below the threshold	below the threshold	below the threshold	below the threshold	below the threshold	below the threshold	below the threshold	below the threshold	below the threshold	below the threshold	below the threshold	3.86	below the threshold	below the threshold	below the threshold	below the threshold	pKd (ARHGEF11, O15085): below the threshold; pKd (DVL3, Q92997): below the threshold; pKd (Inadl_3, Q8NI35): below the threshold; pKd (SNTG1, Q9NSN8): below the threshold
